# Assay results as given in article PMC12322997, “Asxl1 regulates optic cup development through interaction with Lhx2 and epigenetic modulation of Wnt signaling” (Animal Cells and Systems, 2025).
# T1: GST-mAsxl1 (aa 1193-1514) (mouse, UniProt P59598 1193-1514)
# T1 construct: also called GST-fused Asxl1 protein; source: E. coli, purified (glutathione-Sepharose beads)
# T1 sequence (looked up): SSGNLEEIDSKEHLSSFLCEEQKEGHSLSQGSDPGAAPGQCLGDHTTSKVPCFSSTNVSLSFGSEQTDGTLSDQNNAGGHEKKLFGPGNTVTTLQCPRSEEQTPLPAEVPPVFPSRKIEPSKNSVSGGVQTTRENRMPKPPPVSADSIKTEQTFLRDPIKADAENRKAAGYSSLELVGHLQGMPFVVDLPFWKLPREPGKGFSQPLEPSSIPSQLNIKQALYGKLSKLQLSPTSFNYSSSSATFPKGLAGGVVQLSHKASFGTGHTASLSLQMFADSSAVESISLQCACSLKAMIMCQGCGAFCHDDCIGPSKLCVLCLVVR
# B1: His-hLhx2 (aa 42-221) (domain or fragment, human, UniProt P50458 42-221, looked up)
# chain: MPSISSDRAALCAGCGGKISDRYYLLAVDKQWHMRCLKCCECKLNLESELTCFSKDGSIYCKEDYYRRFSVQRCARCHLGISASEMVMRARDLVYHLNCFTCTTCNKMLTTGDHFGMKDSLVYCRLHFEALLQGEYPAHFNHADVAAAAAAAAAAKSAGLGAAGANPLGLPYYNGVGTVQ
# notes: LHX2, human (hLHX2), residues 42-221; also called His-tagged Lhx2 protein; source: E. coli, purified (Ni-NTA agarose beads)
# Biological target: T1, GST-mAsxl1 (aa 1193-1514)
# Assay: pull-down; GST pull-down; GST-mAsxl1 on glutathione-Sepharose, His-hLHX2 purified on Ni-NTA; bound protein detected by anti-His Western blot
# Settings: both partners purified
binder,measurement,value
B1,binding result,binds
